Assay results taken from patent US20050079503A1, “Binding domain of Siah (seven in absentia homolog) protein” (PETER MacCALLUM CANCER INSTITUTE, ST. VINCENT'S INSTITUTE …, priority 2001, published 2005).

Legend:
Siah = target: T1, Siah (Mus musculus, UniProt P61092); assay: Interaction studies using bacterially expressed proteins; type: binding
T1 construct: made in house; host or cells: bacteria
T1 sequence (P61092 1-282): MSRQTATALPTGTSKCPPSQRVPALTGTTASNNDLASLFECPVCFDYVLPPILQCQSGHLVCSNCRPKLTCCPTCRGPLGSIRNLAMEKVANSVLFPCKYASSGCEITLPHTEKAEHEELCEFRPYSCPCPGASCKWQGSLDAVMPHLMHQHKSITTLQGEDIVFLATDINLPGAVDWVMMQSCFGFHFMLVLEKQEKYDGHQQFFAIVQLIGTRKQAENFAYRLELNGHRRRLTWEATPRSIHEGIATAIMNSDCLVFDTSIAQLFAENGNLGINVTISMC
Source text: PHYL is known to interact and function with SINA, the Drosophila orthologue of mammalian Siah, in the targeted degradation of the transcriptional repressor tramtrack 88 (TTK88). Applicants have shown that it interacts similarly with mammalian Siah.

[1] = target: T2, mutant form of Siah (Leu211 to Arg) (Mus musculus, UniProt P61092, L211R); assay: Binding of PHYL to mutant form of Siah; settings: method not stated
T2 construct: made in house
T2 sequence (P61092 80-282 L211R): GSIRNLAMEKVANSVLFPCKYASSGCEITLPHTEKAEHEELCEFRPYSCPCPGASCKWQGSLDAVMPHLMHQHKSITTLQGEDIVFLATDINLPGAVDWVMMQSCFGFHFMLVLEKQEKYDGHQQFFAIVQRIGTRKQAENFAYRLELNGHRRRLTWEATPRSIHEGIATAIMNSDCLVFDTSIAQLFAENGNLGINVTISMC

B1: PHYL: phyllopod (PHYL) protein from Drosophila (protein, UniProt Q27934 1-400, looked up)
Protein phyllopod: MSTNQQQQANPSAAVAAPAASSEYLKRTCLICGCHTNQTINIYEPRSGPNIVQLIQAKFKFQPLNEDKFLCFSCNNWLINWHSLQAVNSNEAESQSQSPSHMGNSVLQQERTKLRPVAMVRPTVRVQPQSQPQLQPQVPINPTPAPIVYSKRRASRRSASVSRMSRVLRQCCVESLRRSPKKRNQQSVFVCLRPQGQKRSNAICKVECVAPRRKPVERLVKDVAATATPTPVLNTQSTPTYQRFPQPSVDGKVVAMFRRLGTTLSREEPAAYSAESNPACSKLPQIMSPLKEAPRWTRDLDDDEILLEFDTAISEVLPTARYQVTHEENKENQQAQEMELELEEEEEVDGRAELEVVQEAEAPLEPQSHHKQGNSHQNSHQASIQLAGLRLPMGLSISLV
Siah
  affinity of interaction with Siah (in words): high affinity
[1]
  binding to mutant form of Siah: does not bind
